Read-outs that look alike come from different tables or passages of the source.
T1: cynomolgus CD3 epsilon (cynomolgus monkey, UniProt Q95LI5 22-117, limits assumed)
T1 construct: Recombinant protein; also called cyno CD3E
T1 sequence: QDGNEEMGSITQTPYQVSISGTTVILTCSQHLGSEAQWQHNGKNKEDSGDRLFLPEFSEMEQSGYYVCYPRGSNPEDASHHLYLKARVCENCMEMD


Assays:
[1] = target: T2, human CD3 on T-cell lines (CD3-expressing Jurkat cells; HUT78 cells) (human, UniProt P07766 23-207); experiment: flow cytometry, HUT78 cells
T2 construct: On cells it stands in the CD3/TCR complex

[2] = target: T3, human CD3 epsilon (Acro Cat #CDE-H5223) (human, UniProt P07766 23-126); experiment: SPR (Biacore), antibody captured, human CD3 epsilon analyte
T3 construct: Bought recombinant protein; also called rhCD3E
Protocol: (§1) Anti-Fab or anti-Fc polyclonal antibodies were immobilized onto a CM5 chip (GE Life Sciences) using amine coupling chemistry (from Amine Coupling Kit, GE Life Sciences). The immobilization steps were carried out at a flow rate of 25 μl/min in 1×HBS-EP+ buffer (GE Life Sciences; 10× Stock diluted before use). The sensor surfaces were activated for 7 min with a mixture of NHS (0.05 M) and EDC (0.2 M). The Anti-Fab or Anti-Fc antibodies were injected over all 4 flow cells at a concentration of 25 μg/mL in 10 mM sodium acetate, pH 4.5, for 7 min. Ethanolamine (1 M, pH 8.5) was injected for 7 min to block any remaining activated groups.
(§2) Off-rate and kinetic binding experiments were performed at 25° C. using 1×HBS-EP+ buffer. Test and control antibodies were injected over the anti-Fab or anti-Fc surface at concentrations of 5-10 μg/mL for 12 seconds at a flow rate of 10 μL/min on flow cells 2, 3 and 4, followed by a buffer wash for 30 seconds at the same flow rate. […] After capturing ligand (antibody) on the anti-Fc or anti-Fab surface, the analyte (human CD3 epsilon, Acro Cat #CDE-H5223) was bound for 180 seconds, followed by a 600 second dissociation phase at a flow rate of 50 μL/min. Between each ligand capture and analyte binding cycle, regeneration was carried out using two injections of 10 mM Glycine pH 2.0 for 30 seconds at 30 μL/min, followed by a 30 second buffer wash step.
(§3) The data was fit with the Biacore T200 Evaluation software, using a 1-1 Langmuir binding model. KD (affinity, nM) was determined as a ratio of the kinetic rate constants calculated from the fits of the association and dissociation phases.

[3] = target: T3, human CD3 epsilon (Acro Cat #CDE-H5223); experiment: as above; remark: listed apart in the source
Protocol: as §1, §2, §3

cynomolgus CD3 epsilon = target: T1, cynomolgus CD3 epsilon; experiment: SPR (Biacore), antibody captured, cynomolgus CD3 epsilon analyte
[4] = target: T2, human CD3 on T-cell lines …; experiment: flow cytometry, HUT78 cells; remark: listed apart in the source

T2 sequence (P07766 23-207 limits assumed): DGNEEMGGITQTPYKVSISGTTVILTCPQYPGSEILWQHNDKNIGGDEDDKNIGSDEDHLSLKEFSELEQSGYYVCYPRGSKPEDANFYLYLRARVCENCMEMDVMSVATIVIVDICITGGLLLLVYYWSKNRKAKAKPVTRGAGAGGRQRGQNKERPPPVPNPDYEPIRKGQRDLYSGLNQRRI
T3 sequence (P07766 23-126 limits assumed): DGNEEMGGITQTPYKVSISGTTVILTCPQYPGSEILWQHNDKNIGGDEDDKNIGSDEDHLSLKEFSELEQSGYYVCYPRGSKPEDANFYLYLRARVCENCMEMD

Row | Bmax (MFI) [1] [MFI] | Kd [1] [nM] | Kd [2] [nM] | koff [2] [s⁻¹] | kon [2] [M⁻¹ s⁻¹] | Kd [3] [nM] | koff [3] [s⁻¹] | kon [3] [M⁻¹ s⁻¹] | Kd (cynomolgus CD3 epsilon) [nM] | koff (cynomolgus CD3 epsilon) [s⁻¹] | kon (cynomolgus CD3 epsilon) [M⁻¹ s⁻¹] | HUT78 Bmax [4] | Kd [4] [nM] | Binder
1 | 1080 | 1.87 | 2.36 | 0.000491 | 208000 | 11 | 0.000453 | 41200 | 2.69 | 0.000573 | 213000 | – | – | 2037-B10_Hc-F29D (antibody, human IgG1, lambda, V domains shown, human IgG1, lambda; also called SRP 2037 F29D; 2037-B10_VH-F29D) VH: EVQLVESGGGLVKPGGSLRLSCAASGFTDNKYAMNWVRQAPGKGLEWVARIRTKYNNYATYYADSVKDRFTISRDDSKNTAYLQMNSLKTEDTAVYYCVRHGNFGNSYISYWAYWGQGTPVTVSS VL: QTVVTQEPSLTVSPGGTVTLTCGSSTGAVTSGYYPNWLQQKPGQAPRGLIGGTKFLAPGTPARFSGSLLGGKAALTLSGVQPEDEAEYYCALWYSNRWVFGGGTQLTVTG
2 | – | – | – | – | – | 18.5 | 0.000749 | 40500 | 5.87 | 0.00121 | 206000 | 1040 | 3.72 | SRP 2037-B10 F29D/LC6 (antibody, human IgG1, kappa, V domains shown, human IgG1, kappa) VH: EVQLVESGGGLVKPGGSLRLSCAASGFTDNKYAMNWVRQAPGKGLEWVARIRTKYNNYATYYADSVKDRFTISRDDSKNTAYLQMNSLKTEDTAVYYCVRHGNFGNSYISYWAYWGQGTPVTVSS VL: DIQMTQSPSSLSASVGDRVTITCGSSTGAVTSGYYPNWLQQKPGQAPRGLIGGTKFLAPGVPSRFSGSLSGGKATLTISSLQPEDFATYYCALWYSNRWVFGGGTKVEIKR
3 | – | – | – | – | – | 8.62 | 0.000459 | 53200 | 3.41 | 0.000558 | 164000 | 1550 | 17.3 | SRP 2037-B10 S107D/LC6 (antibody, human IgG1, kappa, V domains shown, human IgG1, kappa; also called 2037-B10 IgG S107D Lc6) VH: EVQLVESGGGLVKPGGSLRLSCAASGFTFNKYAMNWVRQAPGKGLEWVARIRTKYNNYATYYADSVKDRFTISRDDSKNTAYLQMNSLKTEDTAVYYCVRHGNFGNDYISYWAYWGQGTPVTVSS VL: DIQMTQSPSSLSASVGDRVTITCGSSTGAVTSGYYPNWLQQKPGQAPRGLIGGTKFLAPGVPSRFSGSLSGGKATLTISSLQPEDFATYYCALWYSNRWVFGGGTKVEIKR
4 | – | – | – | – | – | 3.89 | 0.000392 | 101000 | 2.09 | 0.000945 | 451000 | 1250 | 6.35 | SRP 2037-B10 Y55D/LC6 (antibody, human IgG1, kappa, V domains shown, human IgG1, kappa) VH: EVQLVESGGGLVKPGGSLRLSCAASGFTFNKYAMNWVRQAPGKGLEWVARIRTKDNNYATYYADSVKDRFTISRDDSKNTAYLQMNSLKTEDTAVYYCVRHGNFGNSYISYWAYWGQGTPVTVSS VL: DIQMTQSPSSLSASVGDRVTITCGSSTGAVTSGYYPNWLQQKPGQAPRGLIGGTKFLAPGVPSRFSGSLSGGKATLTISSLQPEDFATYYCALWYSNRWVFGGGTKVEIKR
5 | 617 | 1.72 | 7.82 | 0.000631 | 80700 | 3.38 | 0.000241 | 71200 | 6.45 | 0.00107 | 166000 | 1200 | 23 | 2037-B10_Hc-F104D (antibody, human IgG1, lambda, V domains shown, human IgG1, lambda; also called SRP 2037 F104D; 2037-B10_VH-F104D) VH: EVQLVESGGGLVKPGGSLRLSCAASGFTFNKYAMNWVRQAPGKGLEWVARIRTKYNNYATYYADSVKDRFTISRDDSKNTAYLQMNSLKTEDTAVYYCVRHGNDGNSYISYWAYWGQGTPVTVSS VL: QTVVTQEPSLTVSPGGTVTLTCGSSTGAVTSGYYPNWLQQKPGQAPRGLIGGTKFLAPGTPARFSGSLLGGKAALTLSGVQPEDEAEYYCALWYSNRWVFGGGTQLTVTG
6 | 953 | 0.58 | – | – | – | 1.49 | 0.000257 | 172000 | – | – | – | 2080 | 2.93 | 2037-B10_Lc-R97D (antibody, V domains shown, human IgG1, lambda; also called SRP 2037 R97D; 2037-B10 VL-R97D) VH: not shown VL: QTVVTQEPSLTVSPGGTVTLTCGSSTGAVTSGYYPNWLQQKPGQAPRGLIGGTKFLAPGTPARFSGSLLGGKAALTLSGVQPEDEAEYYCALWYSNDWVFGGGTQLTVTG
7 | – | – | – | – | – | 3.7 | 0.000374 | 101000 | 14.9 | 0.00165 | 111000 | 760 | 24.6 | SRP 2037-B10 F104D/LC6 (antibody, human IgG1, kappa, V domains shown, human IgG1, kappa) VH: EVQLVESGGGLVKPGGSLRLSCAASGFTFNKYAMNWVRQAPGKGLEWVARIRTKYNNYATYYADSVKDRFTISRDDSKNTAYLQMNSLKTEDTAVYYCVRHGNDGNSYISYWAYWGQGTPVTVSS VL: DIQMTQSPSSLSASVGDRVTITCGSSTGAVTSGYYPNWLQQKPGQAPRGLIGGTKFLAPGVPSRFSGSLSGGKATLTISSLQPEDFATYYCALWYSNRWVFGGGTKVEIKR
8 | 1060 | 1.72 | 1.47 | 0.000215 | 146000 | 5.06 | 0.00041 | 81000 | 1.64 | 0.00034 | 207000 | 1630 | 15.6 | 2037-B10_Hc-S107D (antibody, human IgG1, lambda, V domains shown, human IgG1, lambda; also called SRP 2037 S107D; 2037-B10_VH-S107D) VH: EVQLVESGGGLVKPGGSLRLSCAASGFTFNKYAMNWVRQAPGKGLEWVARIRTKYNNYATYYADSVKDRFTISRDDSKNTAYLQMNSLKTEDTAVYYCVRHGNFGNDYISYWAYWGQGTPVTVSS VL: QTVVTQEPSLTVSPGGTVTLTCGSSTGAVTSGYYPNWLQQKPGQAPRGLIGGTKFLAPGTPARFSGSLLGGKAALTLSGVQPEDEAEYYCALWYSNRWVFGGGTQLTVTG
9 | – | – | – | – | – | 3.91 | 0.00029 | 74000 | – | – | – | 2000 | 121 | SRP 2037-B10 Y61D/R97D (antibody, human IgG1, lambda, V domains shown, human IgG1, lambda) VH: EVQLVESGGGLVKPGGSLRLSCAASGFTFNKYAMNWVRQAPGKGLEWVARIRTKYNNYATDYADSVKDRFTISRDDSKNTAYLQMNSLKTEDTAVYYCVRHGNFGNSYISYWAYWGQGTPVTVSS VL: QTVVTQEPSLTVSPGGTVTLTCGSSTGAVTSGYYPNWLQQKPGQAPRGLIGGTKFLAPGTPARFSGSLLGGKAALTLSGVQPEDEAEYYCALWYSNDWVFGGGTQLTVTG
10 | 544 | 0.27 | 1.31 | 0.000372 | 284000 | 2.45 | 0.000277 | 113000 | 1 | 0.00058 | 579000 | 1270 | 9.36 | 2037-B10_Hc-Y55D (antibody, human IgG1, lambda, V domains shown, human IgG1, lambda; also called SRP 2037 Y55D; 2037-B10_VH-Y55D) VH: EVQLVESGGGLVKPGGSLRLSCAASGFTFNKYAMNWVRQAPGKGLEWVARIRTKDNNYATYYADSVKDRFTISRDDSKNTAYLQMNSLKTEDTAVYYCVRHGNFGNSYISYWAYWGQGTPVTVSS VL: QTVVTQEPSLTVSPGGTVTLTCGSSTGAVTSGYYPNWLQQKPGQAPRGLIGGTKFLAPGTPARFSGSLLGGKAALTLSGVQPEDEAEYYCALWYSNRWVFGGGTQLTVTG
11 | – | – | – | – | – | 3.63 | 0.000369 | 102000 | 3.99 | 0.00154 | 387000 | 737 | 6.61 | SRP 2037-B10 Y61D/LC6 (antibody, human IgG1, kappa, V domains shown, human IgG1, kappa) VH: EVQLVESGGGLVKPGGSLRLSCAASGFTFNKYAMNWVRQAPGKGLEWVARIRTKYNNYATDYADSVKDRFTISRDDSKNTAYLQMNSLKTEDTAVYYCVRHGNFGNSYISYWAYWGQGTPVTVSS VL: DIQMTQSPSSLSASVGDRVTITCGSSTGAVTSGYYPNWLQQKPGQAPRGLIGGTKFLAPGVPSRFSGSLSGGKATLTISSLQPEDFATYYCALWYSNRWVFGGGTKVEIKR
